# B1: H4H12176P2 (antibody, V domains shown)
# VH: EVQLVESGGGLVQPGGSLRLSCAASGFHSNRYWMDWVRQAPGKGLEWVANIKQDGSEENYVDSVKGRFTISRDNAKNSLYLQMNSLRAEDTAVYYCARDRSTSWVPYWFFDLWGRGTLVTVSS
# VL: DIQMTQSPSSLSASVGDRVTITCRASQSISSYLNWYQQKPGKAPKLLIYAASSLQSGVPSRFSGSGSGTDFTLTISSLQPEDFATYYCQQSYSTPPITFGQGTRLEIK
# B2: H4H12176P2xH4H12177P2 bispecific antibody (bispecific antibody, V domains shown)
# VH 1: EVQLVESGGGLVQPGGSLRLSCAASGFHSNRYWMDWVRQAPGKGLEWVANIKQDGSEENYVDSVKGRFTISRDNAKNSLYLQMNSLRAEDTAVYYCARDRSTSWVPYWFFDLWGRGTLVTVSS
# VH 2: EVQLVESGGGVVQRGESLRLSCSASDFIFKDYAMYWVRQIPGKGLEWISLISGDGDTTWYGDSVKGRFTISRDNNENSLFLQMNDLRTEDTAMYYCARDMGWNFFQLQYWGQGTLVTVSS
# VL: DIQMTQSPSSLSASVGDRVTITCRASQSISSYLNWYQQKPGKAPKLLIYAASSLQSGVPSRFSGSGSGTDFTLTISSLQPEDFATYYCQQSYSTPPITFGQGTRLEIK
# B3: H4H12161P (antibody, V domains shown)
# VH: EVQLVESGGDLVQPGGSLRLSCAASGFTFSDHYMDWVRQAPGKGLDWIGRIRNKANAYNTEYAASVRGRFTISRDDSQNLLYLQMNSLKTDDTAVYYCVRVWNYAYFAMDVWGQGTTVTVSS
# VL: DIQMTQSPSSLSASVGDRVTITCRSSQNIGIFLNWYQQKPGEAPNLLISAASSLHSGVPSRFSGSGSGTDFTLTIGSLQPEDFATYYCQQTYNTIFTFGPGTKVDIK
# B4: H4H12175P (antibody, V domains shown)
# VH: EVQLVESGGGVVQPGGSLRLSCAASGFTFNDYAMHWVRQAPGKGLEWVSLISGDGGNTYYADSVKGRLTISRDNSKNSLYLQMNSLRTEDTALYYCAKDKGWNFGYFDLWGRGTLVTVSS
# VL: DIQMTQSPSSLSTSVGDRVTITCRASQNIDTYLNWYQQKPGKAPKLLIYDASSLQSGVPSRFSGSGSGTDFTLTITSLQPEDFATYYCQQNDNILHPLTFGGGTKVEIK
# B5: H4H12171P (antibody, V domains shown)
# VH: EVQLVESGGGVVRPGGSLRLSCAASGFTFDEYGMTWVRQVPGKGLEWVSGITWNGGFTDYTDSVKGRFTSSRDNAKNSLYLQMNSLRAEDTALYYCARDGYSSSWGAYDIWGQGTMVTVSS
# VL: DIQMTQSPSSLSASVGDRVTITCRASQSISTYLNWYQQKPGKAPKLLIYAASSLQSGVPLRFSGSGSGTDFTLTISSLQPEDFASYFCQQSYSTPYTFGQGTKLEIK
# B6: H4H12177P2 (antibody, V domains shown)
# VH: EVQLVESGGGVVQRGESLRLSCSASDFIFKDYAMYWVRQIPGKGLEWISLISGDGDTTWYGDSVKGRFTISRDNNENSLFLQMNDLRTEDTAMYYCARDMGWNFFQLQYWGQGTLVTVSS
# VL: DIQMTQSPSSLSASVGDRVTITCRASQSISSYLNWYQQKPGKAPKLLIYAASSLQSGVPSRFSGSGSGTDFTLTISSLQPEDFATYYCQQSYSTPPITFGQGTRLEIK
# B7: H4H12170P (antibody, IgG4, V domains shown)
# VH: QVQLVESGGGVVQPGRSLRLSCAASGFTFSGYGMHWVRQAPGKGLEWVALIWLDGSNDYYADSVKGRFTISRDNSKNTLYLQMNRLRAEDTAVYYCARDGPVAAIPDYWGQGTLVTVSS
# VL: DIQMTQSPSTLSASVGDRVTITCRASQSISRWLAWYQLKPGKAPKLLIYKASSLESGVPSRFSGSGSGTDFTLTISSLQPDDFATYYCQQYNTYSYTFGQGTKLEIK
# Key:
# Experiment in all cases: cell-based or functional assay
# human complement C5 [1] = target: T1, human complement C5 (human, UniProt P01031 19-1676)
# human complement C5 [2] = target: T1, human complement C5; remark: listed apart in the source
# human complement C5 [3] = target: T1, human complement C5; remark: listed apart in the source
# T1 sequence (P01031 19-1676 limits assumed): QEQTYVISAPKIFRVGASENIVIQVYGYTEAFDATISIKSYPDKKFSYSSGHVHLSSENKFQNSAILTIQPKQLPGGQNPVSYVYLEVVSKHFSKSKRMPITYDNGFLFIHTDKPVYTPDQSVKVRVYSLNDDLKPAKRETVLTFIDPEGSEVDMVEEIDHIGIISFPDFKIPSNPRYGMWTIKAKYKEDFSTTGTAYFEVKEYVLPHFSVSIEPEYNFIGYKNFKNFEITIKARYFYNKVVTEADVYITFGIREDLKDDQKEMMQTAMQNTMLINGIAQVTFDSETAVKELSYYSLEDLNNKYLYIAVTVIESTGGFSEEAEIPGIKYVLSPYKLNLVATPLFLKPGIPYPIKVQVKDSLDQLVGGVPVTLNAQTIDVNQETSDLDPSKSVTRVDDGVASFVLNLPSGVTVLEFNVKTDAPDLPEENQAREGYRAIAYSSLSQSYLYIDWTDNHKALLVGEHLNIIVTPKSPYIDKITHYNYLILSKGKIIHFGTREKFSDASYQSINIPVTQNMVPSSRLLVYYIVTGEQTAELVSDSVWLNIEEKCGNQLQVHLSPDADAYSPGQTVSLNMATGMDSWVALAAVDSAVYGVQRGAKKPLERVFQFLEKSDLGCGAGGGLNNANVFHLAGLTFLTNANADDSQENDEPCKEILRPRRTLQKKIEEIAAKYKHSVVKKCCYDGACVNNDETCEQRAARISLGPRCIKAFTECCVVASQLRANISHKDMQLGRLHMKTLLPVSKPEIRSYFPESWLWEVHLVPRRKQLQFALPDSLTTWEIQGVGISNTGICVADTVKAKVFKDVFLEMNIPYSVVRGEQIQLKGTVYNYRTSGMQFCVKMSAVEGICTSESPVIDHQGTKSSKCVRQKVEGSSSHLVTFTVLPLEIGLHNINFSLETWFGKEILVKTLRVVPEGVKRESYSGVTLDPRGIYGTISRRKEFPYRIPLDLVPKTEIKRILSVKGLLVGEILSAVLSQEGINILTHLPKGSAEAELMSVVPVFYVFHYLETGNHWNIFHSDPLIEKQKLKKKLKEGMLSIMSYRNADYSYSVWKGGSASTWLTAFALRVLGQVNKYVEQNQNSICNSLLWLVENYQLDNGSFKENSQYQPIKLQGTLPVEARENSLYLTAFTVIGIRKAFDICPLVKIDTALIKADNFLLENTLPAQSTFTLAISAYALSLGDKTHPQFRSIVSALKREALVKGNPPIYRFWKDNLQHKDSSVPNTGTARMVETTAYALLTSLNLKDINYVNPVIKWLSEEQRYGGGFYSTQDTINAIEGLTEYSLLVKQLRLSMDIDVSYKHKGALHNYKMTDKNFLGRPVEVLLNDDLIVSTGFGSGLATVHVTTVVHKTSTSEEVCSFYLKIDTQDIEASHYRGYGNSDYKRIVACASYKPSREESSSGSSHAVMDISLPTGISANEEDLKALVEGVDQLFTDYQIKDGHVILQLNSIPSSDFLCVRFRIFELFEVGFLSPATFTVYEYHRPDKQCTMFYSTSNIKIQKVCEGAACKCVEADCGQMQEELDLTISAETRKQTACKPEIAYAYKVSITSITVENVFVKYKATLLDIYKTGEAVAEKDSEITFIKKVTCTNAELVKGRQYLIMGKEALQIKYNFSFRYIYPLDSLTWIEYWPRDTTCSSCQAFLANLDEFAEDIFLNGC
Binder,"% Max Inh. of Lysis (alternative pathway hemolysis of rabbit RBC, 25% NHS, 30 min) (human complement C5 [1])","% Max Inh. of Lysis (alternative pathway hemolysis, 25% NHS, 30 min) (human complement C5 [2])","mAb/C5 ratio that blocked hemolysis to close to zero (25% C5-deficient NHS, 145 nM C5 add-back) (human complement C5 [3])"
B1,62.8%,27.4%,–
B2,–,98.1%,~1.29 mAb/C5 molar ratio
B3,59.2%,–,–
B4,77.8%,–,–
B5,36.6%,–,–
B6,76.2%,42.6%,–
B7,88.7%,–,–

# From patent US20240392039A1 (Regeneron, published 2024)
